Laboratory results as given in paper PMC6230950.

Legend:
[1] = molecular target: commercial purified human IgG1 (human); assay: SPR; Biacore X100, HBS-EP+; TB-PIGS captured on protein A coupled to a CM5 chip; FcγR as analyte, 40 μL/min; affinity of one FcγR for a single arm
[2] = molecular target: commercial purified human IgG1 (human); assay: SPR; Biacore X100; protein A on a CM5 chip, IgG or TB-PIGS captured; human CD32a as analyte, 4000 nM to 125 nM in 2-fold dilutions; HBS-EP+; 40 uL/min, contact 90 s; steady-state affinity analysis
[3] = molecular target: commercial purified murine IgG2a (mouse); assay: SPR; Biacore X100; protein A amine-coupled on a CM5 chip, IgG or TB-PIGS captured on it; CD64 (human or mouse) as analyte, 240 nM down to 1.875 nM in 1:2 dilutions; HBS-EP+; 40 uL/min, contact 135 s, dissociation 600 s; 1:1 model, but for human TB-PIGS from wild-type plants the 'Heterogeneous antibody with aglycosylation' model (two sets of values)

“human CD16a (FcγRIIIa) (from UniProt P08637 17-208) (receptor)” was tested, and the Kd [1] was 673 nM.

“human CD32a (FcγRIIa) (from UniProt P12318 34-217) (receptor)” showed a Kd [2] of 880 nM.

“human CD64 (FcγRI) (from UniProt P12314 16-292) (receptor)” was tested, and the Kd [1] was 0.27 nM.

B1: mouse CD64 (FcγRI) (receptor)
chain: EVVNATKAVITLQPPWVSIFQKENVTLWCEGPHLPGDSSTQWFINGTAVQISTPSYSIPEASFQDSGEYRCQIGSSMPSDPVQLQIHNDWLLLQASRRVLTEGEPLALRCHGWKNKLVYNVVFYRNGKSFQFSSDSEVAILKTNLSHSGIYHCSGTGRHRYTSAGVSITVKELFTTPVLRASVSSPFPEGSLVTLNCETNLLLQRPGLQLHFSFYVGSKILEYRNTSSEYHIARAEREDAGFYWCEVATEDSSVLKRSPELELQVLGPQSSAP
B1 was tested, and the Kd [3] was 4.8 nM, the koff [3] was 0.0105 s⁻¹ and the kon [3] was 2.18e+06 M⁻¹ s⁻¹.
